According to PMC11335306:

Columns and labels:
[1] = target: BTV-15-VP5-Δ43-Nhis, seleno-methionyl-derivatised (Bluetongue virus serotype 15); assay: crystal structure; high pH crystal form: 0.09 M sodium formate, 6.6% PGA-LM, 0.1 M Tris (pH 9.0), 20 °C; space group P1, nine subunits in the asymmetric unit; Se-Met protein
[2] = target: BTV-15-VP5-Δ43-Nhis, unlabelled (Bluetongue virus serotype 15); assay: crystal structure; low pH crystal form: 1.0 M sodium chloride, 0.1 M Tris (pH 6.0), 20 °C; space group H3; native protein

Substance: BTV-15-VP5-Δ43-Nhis, seleno-methionyl-derivatised (domain or fragment)
- stoichiometry N [1]: 3

Substance: BTV-15-VP5-Δ43-Nhis, unlabelled (domain or fragment)
- stoichiometry N [2]: 3
